Laboratory results from US10260068B2, “Prophylactic agent and therapeutic agent for fibrodysplasia ossificans progressiva” (Sumitomo Dainippon Pharma Co., Ltd., priority 2014, dated 2019).

Key:
[1] = system: FOP patient derived cells; experiment: Evaluation of binding inhibitors: chondrocyte differentiation of FOP patient derived cells in copresence of human activin A; format: cell-based; settings: copresence of 30 ng/mL human activin A, 6 days; vs activin-treated group
Experimental: Patient iPS cell line-derived mesenchymal stem cell-like cells were prepared by the same method as Example 1. The mesenchymal stem cell-like cells were cultured for 6 days by the same method as Example 3, for differentiation to chondrocytes. The effect of each factor on differentiation to chondrocytes was examined, with neutralizing antibody for human activin A (product of R&D Systems, Inc., trade name: Human/Mouse/Rat Activin A βA subunit Antibody), follistatin (product of R&D Systems, Inc., trade name: Recombinant Human Follistatin 315 as 30-344), follistatin-like 3 (product of R&D Systems, Inc., trade name: Recombinant Human Follistatin-related Gene Protein/FLRG), ACVR2A-Fc chimeric protein (product of R&D Systems, Inc., trade name: Recombinant Human Activin RIIA Fc Chimera (CHO)), or ACVR2B-Fc chimeric protein (product of R&D Systems, Inc., trade name: Recombinant Human Activin RIIB Fc Chimera), in the copresence of 30 ng/mL of human activin A. The ACVR2A-Fc chimeric protein is a fusion protein in which a polypeptide fragment having the amino acid sequence of positions 20 to 134 of the amino acid sequence listed as SEQ ID NO: 12, and the Fc region of the human-derived antibody, are bonded via a linker sequence (Ile-Glu-Gly-Arg-Met-Asp). The ACVR2B-Fc chimeric protein is a fusion protein in which a polypeptide fragment having the amino acid sequence of positions 19 to 134 of the amino acid sequence listed as SEQ ID NO: 14, and the Fc region of the human-derived antibody, are bonded via a linker sequence (Ile-Glu-Gly-Arg-Met-Asp). The extent of differentiation to chondrocytes was evaluated by Alcian blue staining and sulfated glycosaminoglycan assay, similar to Example 3. In FIG. 6(B), the bar graph indicates the mean values for each treated group, and the error bars represent S.D.

[2] = system: FOP patient derived cells; experiment: Differentiation to chondrocytes (Alcian blue, sulfated glycosaminoglycan assay) of FOP patient derived cells; format: cell-based, human
Experimental: (§1) Mesenchymal stem cell-like cells from a patient iPS cell line and a gene-corrected iPS cell clone were each prepared by the same method as Example 1. The mesenchymal stem cell-like cells were cultured for 6 days under the medium conditions used in the method of Umeda et al. (Sci. Rep., 2012, 2, 455), for differentiation to chondrocytes. During differentiation, 100 ng/mL of human activin A, 100 ng/mL of human BMP-7 or 1 ng/mL of human TGF-β3 (product of R&D Systems, Inc., trade name: Recombinant Human TGF-beta 3) was added and the effect of each factor on differentiation to chondrocytes was examined. The extent of differentiation to chondrocytes was measured with Alcian blue dye and a sulfated glycosaminoglycan assay kit (product of Biocolor, Ltd., trade name: Blyscan Glycosaminoglycan Assay Kit). In FIG. 4, the bar graph indicates the mean values for each treated group, and the error bars represent S.D.

[3] = system: gene-corrected clone derived cells; experiment: Differentiation to chondrocytes (sulfated glycosaminoglycan assay) of gene-corrected clone derived cells; format: cell-based, human; settings: 100 ng/mL BMP-7 or 1 ng/mL TGF-β3, 6 days, vs untreated group
Experimental: as §1

| Molecule | differentiation of FOP patient derived cells to chondrocytes (Alcian blue staining, sulfated glycosaminoglycan assay) [1] | difference in cartilage induction between FOP patient derived cells and gene-corrected clone derived cells ([2]; 1 ng/mL TGF-β3, 6 days) | cartilage induction effect compared to the effect exhibited by activin A on FOP patient derived cells ([2]; 100 ng/mL BMP-7 or 1 ng/mL TGF-β3, 6 days) | cartilage induction (sulfated glycosaminoglycan assay) ([2]; FOP patient derived cells, 100 ng/mL activin A, 100 ng/mL BMP-7 or 1 ng/mL TGF-β3, 6 days, vs untreated group) | cartilage induction (sulfated glycosaminoglycan assay) [3] |
| --- | --- | --- | --- | --- | --- |
| ACVR2B-Fc chimeric protein: Fusion of positions 19 to 134 of SEQ ID NO: 14 with human antibody Fc region via linker Ile-Glu-Gly-Arg-Met-Asp (protein, left off: a dimerising Fc or GST) SGRGEAETRECIYYNANWELERTNQSGLERCEGEQDKRLHCYASWRNSSGTIELVKKGCWLDDFNCYDRQECVATEENPQVYFCCCEGNFCNERFTHLPEAGGPEVTYEPPPTAPTIEGRMD | inhibited |  |  |  |  |
| follistatin-like 3: Recombinant Human Follistatin-related Gene Protein/FLRG (R&D Systems) (protein, listed as Homo sapiens) MRPGAPGPLWPLPWGALAWAVGFVSSMGSGNPAPGGVCWLQQGQEATCSLVLQTDVTRAECCASGNIDTAWSNLTHPGNKINLLGFLGLVHCLPCKDSCDGVECGPGKACRMLGGRPRCECAPDCSGLPARLQVCGSDGATYRDECELRAARCRGHPDLSVMYRGRCRKSCEHVVCPRPQSCVVDQTGSAHCVVCRAAPCPVPSSPGQELCGNNNVTYISSCHMRQATCFLGRSIGVRHAGSCAGTPEEPPGGESAEEEENFV | inhibited |  |  |  |  |
| follistatin: Recombinant Human Follistatin 315 (R&D Systems) (protein) GNCWLRQAKNGRCQVLYKTELSKEECCSTGRLSTSWTEEDVNDNTLFKWMIFNGGAPNCIPCKETCENVDCGPGKKCRMNKKNKPRCVCAPDCSNITWKGPVCGLDGKTYRNECALLKARCKEQPELEVQYQGRCKKTCRDVFCPGSSTCVVDQTNNAYCVTCNRICPEPASSEQYLCGNDGVTYSSACHLRKATCLLGRSIGLAYEGKCIKAKSCEDIQCTGGKKCLWDFKVGRGRCSLCDELCPDSKSDEPVCASDNATYASECAMKEAACSSGVLLEVKHSGSCNSISEDTEEEEEDEDQDYSFPISSILEW | inhibited |  |  |  |  |
| TGF-β3: Recombinant Human TGF-beta 3 (R&D Systems) (protein, UniProt P10600 301-412, looked up) Transforming growth factor …: ALDTNYCFRNLEENCCVRPLYIDFRQDLGWKWVHEPKGYYANFCSGPCPYLRSADTTHSTVLGLYNTLNPEASASPCCVPQDLEPLTILYYVGRTPKVEQLSNMVVKSCKCS |  | no significant difference | weaker | significantly enhanced | significantly enhanced |
